This is an account of results in article PMC6937325, “Tuning PFKFB3 Bisphosphatase Activity Through Allosteric Interference” (Scientific Reports, 2019).

A word on the Kd: it is the free concentration of one partner at which half of the binding sites on the other are occupied at equilibrium, for simple one-to-one binding.

For assay [1], the target named is T1, human inducible phospho-fructokinase bisphosphatase isoform 3, PFKFB3 (human), Q16875. In words: MST; compound in MST buffer mixed 1:1 with 100 nM RED-NHS labeled recombinant PFKFB3, incubated 20 min at room temperature; Nanotemper.
Assay [2] concerns the target T1, human inducible phospho-fructokinase ….

T1 sequence (Q16875 whole entry, canonical isoform): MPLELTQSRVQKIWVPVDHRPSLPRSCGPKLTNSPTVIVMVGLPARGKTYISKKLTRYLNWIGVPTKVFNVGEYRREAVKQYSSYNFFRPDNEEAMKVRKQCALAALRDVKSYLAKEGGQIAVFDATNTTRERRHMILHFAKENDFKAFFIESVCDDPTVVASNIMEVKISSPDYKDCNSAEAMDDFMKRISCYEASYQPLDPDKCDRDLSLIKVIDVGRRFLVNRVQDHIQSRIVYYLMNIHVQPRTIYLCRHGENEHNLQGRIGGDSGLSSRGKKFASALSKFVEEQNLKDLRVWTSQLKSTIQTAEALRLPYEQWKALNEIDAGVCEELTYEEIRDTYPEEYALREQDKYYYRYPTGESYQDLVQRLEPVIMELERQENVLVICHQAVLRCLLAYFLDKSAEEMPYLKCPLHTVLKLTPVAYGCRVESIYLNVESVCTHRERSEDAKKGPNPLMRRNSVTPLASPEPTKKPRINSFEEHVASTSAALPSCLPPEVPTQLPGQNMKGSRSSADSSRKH

As for YSGFLT (modifications not checked) [compound 4], in assay [1], the Kd is 18 µM. Further, the PFKFB3 bisphosphatase velocity (LC-MS/MS of F6P) with compound 4, substrate F2,6BP 20-50 µM; not significantly different from enzyme alone (nmol/min of F6P per nmol of enzyme) in assay [2] was found to be 0.14.
Consider SFLLR (modifications not checked) [compound 5], for which the dissociation constant Kd in assay [1] stood at 44 µM.
